Laboratory results reported in patent US20250249118A1 (Eli Lilly, published 2025).

Legend:
[1] = target: T1, cynomolgus TfR ECD (cynomolgus); experiment: SPR, Biacore 8K, 37 C, TfR ECD amine-coupled on CM4 chip, TBP as analyte, 2-state model; SEM 2.565 nM, n = 3
T1 chain: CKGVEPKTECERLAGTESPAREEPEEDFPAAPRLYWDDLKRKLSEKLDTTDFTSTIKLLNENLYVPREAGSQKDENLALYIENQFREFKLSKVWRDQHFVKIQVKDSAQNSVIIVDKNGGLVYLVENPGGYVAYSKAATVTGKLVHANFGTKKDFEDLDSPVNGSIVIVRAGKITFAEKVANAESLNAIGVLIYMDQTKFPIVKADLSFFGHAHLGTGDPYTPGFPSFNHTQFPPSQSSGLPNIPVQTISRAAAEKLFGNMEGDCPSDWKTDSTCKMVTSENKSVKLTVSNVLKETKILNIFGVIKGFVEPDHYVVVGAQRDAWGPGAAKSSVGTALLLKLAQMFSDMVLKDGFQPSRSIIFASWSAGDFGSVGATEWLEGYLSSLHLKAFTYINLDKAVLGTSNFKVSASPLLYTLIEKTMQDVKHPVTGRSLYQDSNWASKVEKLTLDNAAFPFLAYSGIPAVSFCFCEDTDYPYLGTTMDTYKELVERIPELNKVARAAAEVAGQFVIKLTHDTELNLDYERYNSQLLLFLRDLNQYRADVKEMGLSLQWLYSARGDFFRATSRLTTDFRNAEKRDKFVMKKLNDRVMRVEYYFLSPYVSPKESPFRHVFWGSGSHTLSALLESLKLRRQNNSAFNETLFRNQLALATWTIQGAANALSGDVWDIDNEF
Protocol: (§1) Target human and cynomologus TfR ECD's were immobilized on a CM4 chip (Cytiva P/N 29104989) using standard NHS-EDC amine coupling. The TfR binding proteins were prepared at a final concentration of 0.3, 0.1, 0.033, 0.01, 0.0033, 0.001, 0.00033, 0.0001 μM respectively by dilution of stock solution into running buffer.
(§2) Binding analysis was performed in a multi-cycle kinetics manner. Each analysis cycle consists of (1) injection of the lowest to highest concentration proteins over all Fc at 50 μL/min for 140 seconds followed by return to buffer flow for 400 seconds to monitor dissociation phase; (2) regeneration of chip surfaces with injection of 3M magnesium chloride, for 30 seconds at 100 μL/min over all cells; and (3) equilibration of chip surfaces with a 50 μL (30-sec) injection of HBS-EP+. Data were processed using standard double-referencing and fit to a 2-state binding model using Biacore 8K Evaluation software, to determine the association rate (kₒₙ, M⁻¹ s⁻¹ units), dissociation rate (koff, s⁻¹ units), and Rₘₐₓ (RU units). The equilibrium dissociation constant (KD) is calculated from the relationship KD=koff/kₒₙ, and is in molar units.

[2] = target: T2, human TfR ECD (human, UniProt P02786 89-760); experiment: SPR, Biacore 8K, 37 C, TfR ECD amine-coupled on CM4 chip, TBP as analyte, 2-state model; SEM 7.949 nM, n = 3
T2 construct: extracellular domain; also called human Transferrin Receptor 1 extracellular domain
Protocol: as §1, §2

B1: TBP4 (One Arm Heteromab 1, A378C) (antibody)
heavy: EVQLVESGGGLVKPGGSLRLSCVASGFTFSSYSMNWVRQAPGKGLEWVSSISSSSSYIYYADSVKGRFTISRDNAKNSLYLQMNSLRAEDTAVYYCARRHGYSNSDAFDNWGQGTLVTVSSASTKGPSVFPLAPCSRSTSESTAALGCLVKDYFPEPVTVSWNSGALTSGVHTFPAVLQSSGLYSLSSVVTVPSSSLGTKTYTCNVDHKPSNTKVDKRVESKYGPPCPPCPAPEAAGGPSVFLFPPKPKDTLMISRTPEVTCVVVDVSQEDPEVQFNWYVDGVEVHNAKTKPREEQFNSTYRVVSVLTVLHQDWLNGKEYKCKVSNKGLPSSIEKTISKAKGQPREPQVSTLPPSQEEMTKNQVSLMCLVYGFYPSDICVEWESNGQPENNYKTTPPVLDSDGSFFLYSVLTVDKSRWQEGNVFSCSVMHEALHNHYTQKSLSLSLG
light: DIQMTQSPSAMSASVGDRVTITCRASQGISHYLVWFQQKPGKVPKRLIYAASSLQSGVPSRFSGSGSGTEFTLTISSLQPEDFATYYCLQHNSYPWTFGQGTKVEIKRTVAAPSVFIFPPSDEQLKSGTASVVCLLNNFYPREAKVQWKVDNALQSGNSQESVTEQDSKDSTYSLSSTLTLSKADYEKHKVYACEVTHQGLSSPVTKSFNRGEC
Fc: ESKYGPPCPPCPAPEAAGGPSVFLFPPKPKDTLMISRTPEVTCVVVDVSQEDPEVQFNWYVDGVEVHNAKTKPREEQFNSTYRVVSVLTVLHQDWLNGKEYKCKVSNKGLPSSIEKTISKAKGQPREPQVYTLPPSQGDMTKNQVQLTCLVKGFYPSDICVEWESNGQPENNYKTTPPVLDSDGSFFLASRLTVDKSRWQEGNVFSCSVMHEALHNHYTQKSLSLSLG
notes: One-arm heteromab: HC1 with LC1, plus an Fc-only HC2; IgG4 PAA; also called OAH1; copies: 1 + 1 + 1
[1]
  Kd: 300 nM
[2]
  Kd: 154 nM
